# According to patent publication US20050048527, “Endonuclease-substrate complexes” (Third Wave Technologies, Inc., published 2005):
# T1: Pho FEN1 (Pyrococcus horikoshii, UniProt O50123 SEQ:1-343)
# T1 sequence: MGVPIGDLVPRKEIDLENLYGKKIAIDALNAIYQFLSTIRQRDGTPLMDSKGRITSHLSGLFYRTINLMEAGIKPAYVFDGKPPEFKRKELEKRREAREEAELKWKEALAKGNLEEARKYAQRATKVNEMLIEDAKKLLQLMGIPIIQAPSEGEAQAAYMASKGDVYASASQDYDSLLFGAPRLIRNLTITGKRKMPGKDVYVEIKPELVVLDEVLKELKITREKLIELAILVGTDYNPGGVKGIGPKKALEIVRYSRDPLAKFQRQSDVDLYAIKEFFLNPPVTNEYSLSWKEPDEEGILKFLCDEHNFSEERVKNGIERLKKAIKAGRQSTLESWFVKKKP
# T2: Pfu Y33F FEN1 (Pyrococcus furiosus, UniProt O93634 SEQ:1-340, Y33F)
# T2 sequence: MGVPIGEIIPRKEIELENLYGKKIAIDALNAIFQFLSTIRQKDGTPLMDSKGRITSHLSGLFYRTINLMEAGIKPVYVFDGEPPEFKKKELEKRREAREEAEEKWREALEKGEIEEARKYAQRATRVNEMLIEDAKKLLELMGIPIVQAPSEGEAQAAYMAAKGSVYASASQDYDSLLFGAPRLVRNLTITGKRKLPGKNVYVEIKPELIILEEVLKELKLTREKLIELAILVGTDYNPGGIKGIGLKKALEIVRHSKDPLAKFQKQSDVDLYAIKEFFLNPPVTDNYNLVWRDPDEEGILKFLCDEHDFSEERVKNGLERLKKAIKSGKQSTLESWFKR
# B1: X-structure 203-81-2/203-91-2 (structured_DNA)
# DNA 1: TTTTCAACTGCTTAGAGAATCTAAGCAGTTGGTGCGCCTCGTTAA
# DNA 2: AACGAGGCGCACATT
# modifications: 3'-NH2 on first strand
# B2: INVADER substrate 594-12-1/203-91-1 (structured_DNA)
# DNA 1: TTTTTCACGGCAGTTGGTGCGCCTCGGAACGAGGCGCACA
# DNA 2: TTTTCAACTGCCGTGA
# Experiments:
# Pho FEN1 = molecular target: T1, Pho FEN1; assay: cleavage_in_vitro; rate vs Pfu FEN1; settings: label: 5'-TET; X-structure
# Experimental: (§1) For the evaluation of chimeric enzymes, standard tests were performed to measure the performance and specificity of the enzymes. […] 10 μl reactions are run at 59 C for between 5 to 60 minutes depending on the enzyme. Reactions are stopped by the addition of 10 μl of 95% formamide, 0.02% methyl violet. 1 μl of the mixture is run on a denaturing 20% acrylamide gel and electrophoresed for 15 minutes or until good separation is achieved between cleaved and uncleaved probe. The gels are scanned using an FMBIO fluorescent gel scanner and the bands are quantified with FMBIOAnalysis software. Cleavage rates are determined from the percent probe cleaved. Cleavage rate for the INVADER substrate is defined as the number of probe molecules cleaved per target molecule per minute. In Table 5, below, the cleavage rates for the mutant enzymes are compared to the cleavage rates for unmodified Pfu FEN1 enzyme on the INVADER assay and X-structure substrates.
# (§2) The X-structure substrate is used to determine the amount of background cleavage an enzyme will carry out in an INVADER reaction. It mimics the structure created by uncut primary probe and secondary FRET cassette in the INVADER squared reaction. […] 10 μl reactions are run at 59 C for between 3 to 30 minutes depending on the enzyme. Reactions are stopped by the addition of 10 μl of 95% formamide, 0.02% methyl violet. 1 μl of the mixture is run on a denaturing 20% acrylamide gel and electophoresed for 15 minutes or until good separation is achieved between cleaved and uncleaved probe. The gels are scanned using an FMBIO fluorescent gel scanner and the bands are quantified with FMBIOAnalysis software. Cleavage rates are determined from the percent probe cleaved.
# Pfu Y33F FEN1 = molecular target: T2, Pfu Y33F FEN1; assay: cleavage_in_vitro; rate vs Pfu FEN1; settings: label: 5'-biotin target; 5'-TET probe; hairpin target-INVADER with overlapping probe flap
# Experimental: as §1, §2
Binder,cleavage rate (Pho FEN1),cleavage rate (Pfu Y33F FEN1)
B1,120,–
B2,–,0.96
